# Assay results reported in PMC6393309 (Nucleic Acids Research, 2019).
# Assays:
# [1] = system: λ Exo; settings: Ni-spin pull down; cited from earlier work
# [2] = system: GB2005 E. coli cells; assay: ssDNA recombination assay; assay type: cell-based; settings: % of WT colonies per 10^8 viable cells
# [3] = system: GB2005 E. coli cells; assay: dsDNA recombination assay; assay type: cell-based; settings: % of WT colonies per 10^8 viable cells
# [4] = individual CTD mutations; cited from earlier work
Molecule,SS (%): ssDNA recombination compared to WT [2] [%],DS (%): dsDNA recombination compared to WT [3] [%],other results
"NTD: N-terminal domain of Redβ, residues 1–177 (protein) MSTALATLAGKLAERVGMDSVDPQELITTLRQTAFKGDASDAQFIALLIVANQYGLNPWTKEIYAFPDKQNGIVPVVGVDGWSRIINENQQFDGMDFEQDNESCTCRIYRKDRNHPICVTEWMDECRREPFKTREGREITGPWQSHPKRMLRHKAMIQCARLAFGFAGIYDKDEAER",,,interaction with λ Exo [1]: no interaction
F249A Redβ: Redβ variant (protein) MSTALATLAGKLAERVGMDSVDPQELITTLRQTAFKGDASDAQFIALLIVANQYGLNPWTKEIYAFPDKQNGIVPVVGVDGWSRIINENQQFDGMDFEQDNESCTCRIYRKDRNHPICVTEWMDECRREPFKTREGREITGPWQSHPKRMLRHKAMIQCARLAFGFAGIYDKDEAERIVENTAYTAERQPERDITPVNDETMQEINTLLIALDKTWDDDLLPLCSQIFRRDIRASSELTQAEAVKALGALKQKAAEQKVAA,0.73,0.21,DS (%): dsDNA recombination compared to WT ([3]; listed as F249A): 0–0.7%
R229A Redβ: Redβ variant (protein) MSTALATLAGKLAERVGMDSVDPQELITTLRQTAFKGDASDAQFIALLIVANQYGLNPWTKEIYAFPDKQNGIVPVVGVDGWSRIINENQQFDGMDFEQDNESCTCRIYRKDRNHPICVTEWMDECRREPFKTREGREITGPWQSHPKRMLRHKAMIQCARLAFGFAGIYDKDEAERIVENTAYTAERQPERDITPVNDETMQEINTLLIALDKTWDDDLLPLCSQIFARDIRASSELTQAEAVKALGFLKQKAAEQKVAA,58,71,SS (%): ssDNA recombination compared to WT ([2]; listed as R229A): 13 to 101%; DS (%): dsDNA recombination compared to WT ([3]; listed as R229A): 55–106%
L223A Redβ: Redβ variant (protein) MSTALATLAGKLAERVGMDSVDPQELITTLRQTAFKGDASDAQFIALLIVANQYGLNPWTKEIYAFPDKQNGIVPVVGVDGWSRIINENQQFDGMDFEQDNESCTCRIYRKDRNHPICVTEWMDECRREPFKTREGREITGPWQSHPKRMLRHKAMIQCARLAFGFAGIYDKDEAERIVENTAYTAERQPERDITPVNDETMQEINTLLIALDKTWDDDLLPACSQIFRRDIRASSELTQAEAVKALGFLKQKAAEQKVAA,3.5,0.72,DS (%): dsDNA recombination compared to WT ([3]; listed as L223A): 0–0.7%
"K132A Redβ: Redβ variant, non-interfacial residue Lys-132 of the NTD, control (protein) MSTALATLAGKLAERVGMDSVDPQELITTLRQTAFKGDASDAQFIALLIVANQYGLNPWTKEIYAFPDKQNGIVPVVGVDGWSRIINENQQFDGMDFEQDNESCTCRIYRKDRNHPICVTEWMDECRREPFATREGREITGPWQSHPKRMLRHKAMIQCARLAFGFAGIYDKDEAERIVENTAYTAERQPERDITPVNDETMQEINTLLIALDKTWDDDLLPLCSQIFRRDIRASSELTQAEAVKALGFLKQKAAEQKVAA",20,19,
Q252A Redβ: Redβ variant (protein) MSTALATLAGKLAERVGMDSVDPQELITTLRQTAFKGDASDAQFIALLIVANQYGLNPWTKEIYAFPDKQNGIVPVVGVDGWSRIINENQQFDGMDFEQDNESCTCRIYRKDRNHPICVTEWMDECRREPFKTREGREITGPWQSHPKRMLRHKAMIQCARLAFGFAGIYDKDEAERIVENTAYTAERQPERDITPVNDETMQEINTLLIALDKTWDDDLLPLCSQIFRRDIRASSELTQAEAVKALGFLKAKAAEQKVAA,101,85,SS (%): ssDNA recombination compared to WT ([2]; listed as Q252A): 13 to 101%; dsDNA relative to ssDNA recombination [4]: decreased dsDNA more than ssDNA recombination; DS (%): dsDNA recombination compared to WT ([3]; listed as Q252A): 55–106%
Q226A Redβ: Redβ variant (protein) MSTALATLAGKLAERVGMDSVDPQELITTLRQTAFKGDASDAQFIALLIVANQYGLNPWTKEIYAFPDKQNGIVPVVGVDGWSRIINENQQFDGMDFEQDNESCTCRIYRKDRNHPICVTEWMDECRREPFKTREGREITGPWQSHPKRMLRHKAMIQCARLAFGFAGIYDKDEAERIVENTAYTAERQPERDITPVNDETMQEINTLLIALDKTWDDDLLPLCSAIFRRDIRASSELTQAEAVKALGFLKQKAAEQKVAA,,106,SS (%): ssDNA recombination compared to WT ([2]; listed as Q226A): 13 to 101%; DS (%): dsDNA recombination compared to WT ([3]; listed as Q226A): 55–106%
F249D Redβ (protein) MSTALATLAGKLAERVGMDSVDPQELITTLRQTAFKGDASDAQFIALLIVANQYGLNPWTKEIYAFPDKQNGIVPVVGVDGWSRIINENQQFDGMDFEQDNESCTCRIYRKDRNHPICVTEWMDECRREPFKTREGREITGPWQSHPKRMLRHKAMIQCARLAFGFAGIYDKDEAERIVENTAYTAERQPERDITPVNDETMQEINTLLIALDKTWDDDLLPLCSQIFRRDIRASSELTQAEAVKALGDLKQKAAEQKVAA,0.41,0,
K253A Redβ (protein) MSTALATLAGKLAERVGMDSVDPQELITTLRQTAFKGDASDAQFIALLIVANQYGLNPWTKEIYAFPDKQNGIVPVVGVDGWSRIINENQQFDGMDFEQDNESCTCRIYRKDRNHPICVTEWMDECRREPFKTREGREITGPWQSHPKRMLRHKAMIQCARLAFGFAGIYDKDEAERIVENTAYTAERQPERDITPVNDETMQEINTLLIALDKTWDDDLLPLCSQIFRRDIRASSELTQAEAVKALGFLKQAAAEQKVAA,2.5,0.20,
L223D Redβ: Redβ variant (protein) MSTALATLAGKLAERVGMDSVDPQELITTLRQTAFKGDASDAQFIALLIVANQYGLNPWTKEIYAFPDKQNGIVPVVGVDGWSRIINENQQFDGMDFEQDNESCTCRIYRKDRNHPICVTEWMDECRREPFKTREGREITGPWQSHPKRMLRHKAMIQCARLAFGFAGIYDKDEAERIVENTAYTAERQPERDITPVNDETMQEINTLLIALDKTWDDDLLPDCSQIFRRDIRASSELTQAEAVKALGFLKQKAAEQKVAA,0.68,0.11,DS (%): dsDNA recombination compared to WT ([3]; listed as L223D): 0–0.7%
"F94E λexo: λ Exo variant (protein, left off: His6, N-terminal, kept) MTPDIILQRTGIDVRAVEQGDDAWHKLRLGVITASEVHNVIAKPRSGKKWPDMKMSYFHTLLAEVCTGVAPEVNAKALAWGKQYENDARTLFEETSGVNVTESPIIYRDESMRTACSPDGLCSDGNGLELKCPFTSRDFMKFRLGGFEAIKSAYMAQVQYSMWVTRKNAWYFANYDPRMKREGLHYVVIERDEKYMASFDEIVPEFIEKMDEALAEIGFVFGEQWR",177,0.68,DS (%): dsDNA recombination compared to WT ([3]; listed as F94E): 0.6–3%
"D87A λexo (protein, left off: His6, N-terminal, kept) MTPDIILQRTGIDVRAVEQGDDAWHKLRLGVITASEVHNVIAKPRSGKKWPDMKMSYFHTLLAEVCTGVAPEVNAKALAWGKQYENAARTLFEFTSGVNVTESPIIYRDESMRTACSPDGLCSDGNGLELKCPFTSRDFMKFRLGGFEAIKSAYMAQVQYSMWVTRKNAWYFANYDPRMKREGLHYVVIERDEKYMASFDEIVPEFIEKMDEALAEIGFVFGEQWR",179,55,DS (%): dsDNA recombination compared to WT ([3]; listed as D87A): 55–106%
"L91D λexo (protein, left off: His6, N-terminal, kept) MTPDIILQRTGIDVRAVEQGDDAWHKLRLGVITASEVHNVIAKPRSGKKWPDMKMSYFHTLLAEVCTGVAPEVNAKALAWGKQYENDARTDFEFTSGVNVTESPIIYRDESMRTACSPDGLCSDGNGLELKCPFTSRDFMKFRLGGFEAIKSAYMAQVQYSMWVTRKNAWYFANYDPRMKREGLHYVVIERDEKYMASFDEIVPEFIEKMDEALAEIGFVFGEQWR",110,3.1,
"L91A λexo (protein, left off: His6, N-terminal, kept) MTPDIILQRTGIDVRAVEQGDDAWHKLRLGVITASEVHNVIAKPRSGKKWPDMKMSYFHTLLAEVCTGVAPEVNAKALAWGKQYENDARTAFEFTSGVNVTESPIIYRDESMRTACSPDGLCSDGNGLELKCPFTSRDFMKFRLGGFEAIKSAYMAQVQYSMWVTRKNAWYFANYDPRMKREGLHYVVIERDEKYMASFDEIVPEFIEKMDEALAEIGFVFGEQWR",103,0.63,
"F94A λexo (protein, left off: His6, N-terminal, kept) MTPDIILQRTGIDVRAVEQGDDAWHKLRLGVITASEVHNVIAKPRSGKKWPDMKMSYFHTLLAEVCTGVAPEVNAKALAWGKQYENDARTLFEATSGVNVTESPIIYRDESMRTACSPDGLCSDGNGLELKCPFTSRDFMKFRLGGFEAIKSAYMAQVQYSMWVTRKNAWYFANYDPRMKREGLHYVVIERDEKYMASFDEIVPEFIEKMDEALAEIGFVFGEQWR",183,1.6,
